Each block holds one binder with its values, some of them ahead of it. Numbered stars: 1 amine (or outer) side, 2 acyl side, 3 side chain; on linkers, the order of the positions; unused ones are H or OH. Bridge positions count the residues as written; N and C are the ends. Square brackets hold non-standard residues; d marks the D form. Ends that are not written are not given here. * marks the point of attachment. DOTA = O=C(O)CN1CCN(CC(=O)O)CCN(CC(=O)*)CCN(CC(=O)O)CC1; fluorescein = fluorescein label on the Lys side chain; Phe(4-Br) = N[C@@H](Cc1ccc(Br)cc1)C(=O)O; 1Nal = N[C@@H](Cc1cccc2ccccc12)C(=O)O; TBMB = c1c(C[*:1])cc(C[*:3])cc1C[*:2]; Tle = CC(C)(C)[C@H](N)C(=O)O; Sar = CNCC(=O)O
Assays:
[1] = molecular target: T1, human MT1-MMP hemopexin domain (human, UniProt P50281 319-511); assay: FP competition, human MT1-MMP hemopexin domain; method not given
T1 construct: range 319-511; Secreted from HEK293 cells as soluble N-terminally His6-tagged protein; also called MT1-MMP hemopexin-like repeats; MMP14

[2] = molecular target: T1, human MT1-MMP hemopexin domain; assay: FP direct binding, fluoresceinated peptide titrated with hemopexin domain
[3] = molecular target: T1, human MT1-MMP hemopexin domain; assay: FP competition, human MT1-MMP hemopexin domain; tracer not given
[4] = molecular target: T1, human MT1-MMP hemopexin domain; assay: FP competition, tracer A-(17-69-07)-A-Sar6-K(Fluorescein)
[5] = molecular target: T1, human MT1-MMP hemopexin domain; assay: FP competition, tracer A-(17-69-12)-A-Sar6-K(Fluorescein)
[6] = molecular target: T1, human MT1-MMP hemopexin domain; assay: FP competition, human MT1-MMP hemopexin domain; tracer not given; remark: listed apart in the source
[7] = molecular target: T1, human MT1-MMP hemopexin domain; assay: FP competition, Human/cyno MT1-MMP hemopexin domain
[8] = molecular target: T2, dog MT1-MMP hemopexin domain (dog, UniProt A0A8I3MND9 318-511); assay: FP competition, dog MT1-MMP hemopexin domain
T2 construct: domain: hemopexin domain
Procedure: Subsequently, the non-fluorescent competitor bicyclic peptide (usually just the bicycle core sequence) is titrated, such that it displaces the fluorescent tracer from the target protein. The displacement of the tracer is measured and associated with a drop in fluorescence polarisation. The drop in fluorescence polarisation is proportional to the fraction of target protein bound with the non-fluorescent titrant, and thus is a measure of the affinity of titrant to target protein.

[9] = molecular target: T1, human MT1-MMP hemopexin domain; assay: FP competition, human MT1-MMP hemopexin domain (n = 3; footnote e)
[10] = molecular target: T1, human MT1-MMP hemopexin domain; assay: FP competition, human MT1-MMP hemopexin domain; tracer not given; remark: listed apart in the source
[11] = molecular target: T1, human MT1-MMP hemopexin domain; assay: as above; remark: listed apart in the source
[12] = molecular target: T1, human MT1-MMP hemopexin domain; assay: FP competition, tracer A-(17-69-07)-A-Sar6-K(Fluorescein); remark: listed apart in the source

Binder: ACVNEFGCEDFYDICA (linker 2-8-15 via TBMB; not fully specified (C-terminus), also called A-(17-69-03)-A) [17-69-03-N001]
Kd [4]: 16.7 nM

Binder: ACYNEFGCEDFYDICA (linker 2-8-15 via TBMB; not fully specified (C-terminus), also called A-(17-69-07)-A) [17-69-07-N001]
Kd [5]: 1.65 nM

Binder: Ac-CYNEF[dR]CEDFYDIC (linker 1-7-14 via TBMB; not fully specified (C-terminus)) [17-69-07-N120]
Kd [6]: 4.24 nM

B4: 17-69-12-N005 (peptide)
peptide: ACMNQFGCEDFYDICA[Sar][Sar][Sar][Sar][Sar][Sar]K(fluorescein)
modifications: linker 2-8-15 via TBMB; not fully specified (C-terminus)
notes: also called A-(17-69-12)-A-Sar6-K(Fl); A-(17-69-12)-A-Sar6-K(Fluorescein)
Kd [2]: 3.1 nM

B7: 17-69-07-N219 (peptide)
peptide: GXACYNEFGCEDFYDIC
modifications: not fully specified; Sar x10 in the spacer; 3 Cys cyclised with TBMB
notes: also called G-Sar10-A-(17-69-07) (non-stabilised with spacer)
Kd [7]: 0.82 nM
Kd [8]: 0.9 nM
Kd [9]: 0.82 nM
Kd [10]: 0.82 nM

Binder: Ac-CYNEYGCEDFYDIC (linker 1-7-14 via TBMB; not fully specified (C-terminus), also called Ac-(17-69-07) Tyr4) [17-69-07-N057]
Kd [11]: 1.78 nM

More lines, now with the values ahead:

Kd [1]: 0.95 nM
B1: 17-69-07-N147 (peptide)
peptide: {DOTA}-ACYNEFGCEDFYDIC
modifications: linker 2-8-15 via TBMB; not fully specified (C-terminus); also: DOTA loaded with cold 175Lu
notes: also called DOTA[Lu]-A-(17-69-07)

Kd [2]: 692 nM
B2: 17-69-N004 (peptide)
peptide: ACKNRGFGCEDFYDICA[Sar][Sar][Sar][Sar][Sar][Sar]K(fluorescein)
modifications: linker 2-9-16 via TBMB; not fully specified (C-terminus)
notes: also called A-(17-69)-A-Sar6-K(Fl); A-(17-69)-A-Sar6-K(Fluorescein)

Kd [3]: 0.8 nM
B3: 17-69-07-N252 (peptide)
chain: Ac-C[dA]NE[1Nal][dA]CEDF[Phe(4-Br)]D[Tle]C
modifications: linker 1-7-14 via TBMB; not fully specified (C-terminus); printed as Ac-(17-69-07) D-Ala1 1Nal4 D-Ala5 4BrPhe9 tBuGly11

Kd [2]: 0.52 nM
B5: 17-69-07-N040 (peptide)
peptide: ACYNEFGCEDFYDICA[Sar][Sar][Sar][Sar][Sar][Sar]K(fluorescein)
modifications: linker 2-8-15 via TBMB; not fully specified (C-terminus)
notes: also called A-(17-69-07)-A-Sar6-K(Fl); A-(17-69-07)-A-Sar6-K(Fluorescein)

Kd [1]: 0.5 nM
B6: 17-69-07-N248 (peptide)
chain: {DOTA}-AC[dA]NE[1Nal][dA]CEDF[Phe(4-Br)]D[Tle]C
modifications: linker 2-8-15 via TBMB; not fully specified (C-terminus); also: 177Lu chelated in DOTA for biodistribution study

Kd [11]: 0.75 nM
Binder: Ac-CYNEWGCEDFYDIC (linker 1-7-14 via TBMB; not fully specified (C-terminus), also called Ac-(17-69-07) Trp4) [17-69-44-N002]

Kd [4]: 191 nM
Binder: ACFGEFGCEDFYDICA (linker 2-8-15 via TBMB; not fully specified (C-terminus), also called A-(17-69-02)-A) [17-69-02-N001]

Kd [12]: 3.7 nM
Binder: ACMNQFGCEDFYDICA (linker 2-8-15 via TBMB; not fully specified (C-terminus), also called A-(17-69-12)-A) [17-69-12-N003]

Kd [1]: 0.5 nM
B8: 17-69-07-N144 (peptide)
peptide: {DOTA}-ACYNEFGCEDFYDIC
modifications: linker 2-8-15 via TBMB; not fully specified (C-terminus); also: DOTA loaded with 177Lu
notes: Loaded with 177Lu for the biodistribution study; also called DOTA-A-(17-69-07)
